Results from US20230002757A1.

What follows are binders tested against KLH (Keyhole Limpet Hemocyanin) (keyhole limpet) (assay: ELISA on KLH).

| Binder | EC50 |
| --- | --- |
| NGS602-OLIGO_30 (VHH) VHH: QVQLVESGGGTVQAGGSLRLSCAASGLTFGSYAMEWYRQAPGKERELVATISSGGNTHYLASVKGRFTISRDNDKNTLYLQMNSLKPEDTAVYYCAAKYGWTGIWYAPSDYVHLGPGTQVTVSS | 67 pM |
| NGS602-OLIGO_152 (VHH) VHH: QVQLVESGGGLVQAGDSLRLSCAASGDNFSRYTFGWFRQAPGKEREFVAVINWSGSYTYVADSVAGRFTMSRDNAKHLVYLQMDSLNTGDTAVYYCAAHWDYGSSSRRQREYDYWGQGTQVIVSS | 638 pM |
| NGS602-OLIGO_12 (VHH) VHH: QVQLVESGGGSVQAGGSLRLSCAASGRTFGRHVMAWFRQAPGREREFVAAISGNGRVTNYALSMKGRFTISRDNANDMVYLQMDGLKPEDTAVYSCATRMAFDSDSNFPATYDVWGQGTQVTVSS | 181 pM |
| NGS602-OLIGO_55 (VHH) VHH: QVQLTESGGGLVQAGASLRLSCVASPDTPSTYTIAWFRRAPGKERDFVANIARAGTTITYADSVKGRFTISKDNARNTVYLQMNNLTPADTAIYYCAAYSPGSIIARDSTQYRYWGQGTRVTVSE | 241 pM |
| NGS602-OLIGO_151 (VHH) VHH: EVQLVESGGGLVQPGGSLRLSCTASGFTLSTSPVSWARQAPGKGPEWLAGIYSDGRTSNLVSLRGRFTISRDNAKNTVYLQMNSLLPEDTALYYCAIGAAAVGGLRGQGTQVTVSS | 409 pM |
| NGS602-OLIGO_35 (VHH) VHH: QVSLVESGGGLVQAGGSLRLSCAASGRTFRRSAMGWFRRPPGKEREFVAAITSSGGSIYDPDIAKDRFTISRDNSKTSVYLQMNNLKPEDTAVYYCSLKTTYSGGPYDYTKGPEYDYWGQGTQVTVSS | 291 pM |
| NGS602-OLIGO_28 (VHH) VHH: QVQLVESGGGLVRAGGSLRLSCAASGRAFSSYPMGWFRRAPGKEREFVAAISLSGSKQYYVDSVKGRFTISRDNAKNTVSLQMNSLKPEDTAVYYCAALKDGEPPAVDYWGQGTQVTVSS | 707 pM |
| NGS602-OLIGO_72 (VHH) VHH: QVELVESGGALVQAGGSLKLSCVDSGRSFSSYVVAWFRQAPGKEREFVARVSASGAIRTYADSVRGRFTISRDNTKATVYLQMNSLKSEDTAVFFCAAGGVSTAVHPFKPTSYDFWGQGTQVTVSV | 72 pM |
| NGS602-OLIGO_2 (VHH) VHH: QVQLVESGGGLVQPGGSLRLSCAASESIRSIYAMGWYRQAPGKQRELVALVTDDGSTDYVDSVKGRFTVSRDSAKNTVYLQMNSLKPEDTAVYHCYVEGSTHYDPVREYWGKGTLVTVSS | 1740 pM |
| NGS602-OLIGO_42 (VHH) VHH: QVQLVESGGGLVQAGGSLRLSCLFSGTFGIYGMGWFRQAPGKAREFVAGVSRHGLTTQYADSVKGRFTISRDNAKNTMYLQMNSLKPEDTADYYCARSRLSASLLVTASDYDYWGQGTQVTVSS | 342 pM |
| NGS602-OLIGO_31 (VHH) VHH: QVQLVESGGGLVQAGDSLRLSCTASGTTFDRYHMGWFRQAPGMERHVVAHISWSGANTYVADSMKGRFTISRDNAKNTAYLQINNLKFEDTALYYCAAGSYLAVPGSRWDYWGQGTQVTVSS | 1010 pM |
| NGS602-OLIGO_149 (VHH) VHH: QVQLVESGGGLVQAGDSLRLSCAASGRTFSSYAMAWFRRPPGKAREFVALIRWSNGRTAVVDSVKGRFTASRDNAKNTGYLQMDSLKSEDTAVYYCAACDQALDPPRCNDWGQGTQVTVSS | 147 pM |

The next lines start with the values.

| EC50 | Binder |
| --- | --- |
| 77 pM | NGS602-OLIGO_185 (VHH) VHH: QVQLVESGGGLVQAGGSLRLSCAASGRTSSRYVMGWFRQSPGKEREFVAAISANGRSTNYAGSVNGRFKISRDGAKDKVDLQMNSLKPEDTAVYFCATNMAFSSSSNFPANYDVWGQGTQVTVSS |
| 280 pM | NGS602-OLIGO_186 (VHH) VHH: QVQLAESGGGLVQAGDSLRLSCAASGRSVSSYAMGWFRQAPGKEREFVAAISWSGESTHYADSVKGRFTISRDNAENTVYLQMNSLKPEDTAVYYCASYLSGHYYFGIGRDPPFGSWGQGTQVTVSS |
| 1160 pM | NGS602-OLIGO_205 (VHH) VHH: RVQLVESGGGLVQPGGSLRLSCTASGLPLNTAAMSWYRQTPGKERELVASISITGDSTTYADSVKGRFTISRDNVKNIVYLQMDILKPEDTAVYYCTRAPWDYKYWGQGTQVTVSS |
| 220000 pM | NGS602-OLIGO_221 (VHH) VHH: QVQLVESGGGLVQAGESLRLSCVASGRTFSSYAMGWFRQAPGQEREFVARISRRGTNTYYADSVRGRFTISRDNAKNTVYLQMNSLKPEDTAVYYCAADRSDVFEKDPGYYDYWGQGAQVTVSS |
| 610 pM | NGS602-OLIGO_359 (VHH) VHH: QVQLVESGGGLVQPGGSLRLSCAASGYSLSFYAMGWYRQSPGKQREVVARIAGPGVTNYADSVMGRFTISRDNAKNMVYLQMNSLEPEDTAVYYCNAGGTRWSVGDYWGKGTLVTVSS |
| 195 pM | NGS602-OLIGO_266 (VHH) VHH: QVQLVESGGGLVQAGGSLRLSCAASGRTFFTYPMGWFRQAPGKERQFVAAISGNGDSIDYADSVKGRFTISRDNAKNTLYLQMNSLKPEDAALYYCNAVITHDYTRPLFASWGQGTQVTVSS |
| 213 pM | NGS602-OLIGO_169 (VHH) VHH: RVQLVESGGGLVQAGGALRLSCVGSGFTFRDTAMAWFRQSPGKEREFVAGFSILSRYADSVKGRFTISRDNDKNTVYLQMNSLKPEDTAVYYCAAGDGTIASVLTTSGVNFWGQGTQVTVSS |
